Measured values reported in US20230227838A1, “ENHANCED CELL SURVIVAL AGAINST BIOTIC AND ABIOTIC STRESSES THROUGH SALICYLICK ACID-INDUCED NPR1 CONDENSATES” (priority 2020, published 2023).

Legend:
CUL3 = assay: Co-IP of Myc-CUL3 with HA-fused NPR1 or variants; format: binding, Arabidopsis thaliana; details: for CUL3 pull-down signal in co-IP: 1 mM SA for 5 hr
Method: (§1) Plant transformation: For plant transformations, the Agrobacterium tumefaciens strain GV3101 was transformed with plant binary vectors carrying the indicated transgenes. For stable expression in Arabidopsis, a floral dipping method was used. For transient expression in N benthamiana, the Agrobacterium carrying the indicated construct was cultured overnight at 28° C. in Luria-Bertani (LB) broth medium supplemented with appropriate antibiotics: spectinomycin (100 μg/ml), kanamycin (50 μg/ml), gentamycin (50 μg/ml), and rifampicin (25 μg/ml). The obtained culture was re-inoculated at 1:10 into fresh growth media with antibiotics and grown for another 4 hr. Cells were then spun down at 1,600 g for 10 min, and inoculum was prepared by resuspending cells to OD600 nm=1 in double distilled water (DDW) containing 200 μM acetosyringone (Sigma). Unless otherwise stated, for co-IP, co-localization, and BiFC assays in N. benthamiana, the proteins were co-expressed at 1:1 mixture of the relevant Agrobacteria inoculums. In all BiFC assays, the pair of YN/YC fusions was co-expressed together with free mCherry to mark the cytoplasm and nucleus, mCherry-NLS to mark the nucleus only, or mCherry-fused test proteins for co-localization analysis. The inoculum was pressure infiltrated into N. benthamiana leaves at the abaxial side using 1 ml syringe without the needle. Due to low overall levels of NPR1-GFP in transgenic plants, a transient expression assay in Arabidopsis seedlings was used to monitor NPR1-GFP subcellular localization after SA treatment (FIG. 2B). To limit the imaging time in this transient assay (2 hours), a higher baseline SA concentration had to be used. Seeds of WT (Col-0) Arabidopsis were germinated on solid half-strength Murashige and Skoog (1/2 MS) medium and grown for 4 days. Agrobacterium carrying the indicated constructs was grown overnight in LB medium supplemented with appropriate antibiotics. The obtained culture was re-inoculated at 1:10 into virulence induction medium [50.78 mM MES, 0.5% Glucose, 1.734 mM NaH2PO4, 5% of 20X-AB mix (373.9 mM NH4C1, 24.34 mM MgSO4, 40.23 mM KCl, 1.36 mM CaCl2 and 0.18 mM FeSO4·7H2O), 200 μM acetosyringone] supplemented with 25 μg/ml rifampicin and grown for another 24 hr at 28° C. to OD600=0.8 (inoculum). Seedlings were vacuum-infiltrated with the inoculum, and at 48 hpi (hours post inoculation), treatments were performed by submerging the transformed seedlings in water or SA solution at indicated concentrations for 2 hr. Entire cotyledons were sampled for microscopy.
Protein analysis and IP. Recombinant protein analysis was performed using transient expression in N. benthamiana, or stable over-expression in transgenic Arabidopsis, or expression in E. coli. Total protein extraction from plants was performed by homogenizing leaf tissue in the plant extraction buffer [50 mM Tris-HCl (pH 7.5), 150 mM NaCl, 5 mM EDTA, 0.2% Triton X-100, 0.2% Nonidet P-40] supplemented with 1 mM PMSF, 100 μM MG132, and EDTA-free protease inhibitor cocktail (Roche). For ubiquitinated protein analysis in plants, 100 μM of DUB (deubiquitinase) inhibitor (LifeSensors) and 10 mM NEM were added. Next, the lysates were cleared by centrifugation at 14,000 rpm for 15 min followed by filtering through a 0.2 μm filter. […] Pull-downs or IP experiments were done on total protein extracts by incubating protein samples in the lysis buffer overnight with indicated affinity tag or antibody conjugated to agarose or magnetic beads: GFP-trap agarose beads (Chromotek) for GFP fusions; RFP-trap agarose beads (Chromotek) for mCherry fusions; anti-HA magnetic beads (ThermoFisher) for HA tag fusions; anti-DYKDDDDK coupled magnetic agarose (ThermoFisher) for FLAG tag fusions; and glutathione magnetic agarose (ThermoFisher) for GST fusions. Unless otherwise indicated, after pull-down/IP, beads were washed 3 times and proteins were eluted by boiling in the 2×SDS sample buffer. […]

[1] = tested on: cytoplasmic condensates (SINCs); assay: Confocal imaging of localization and condensate (body) formation of GFP-fused NPR proteins and variants; format: cell-based, Nicotiana benthamiana; details: no SA treatment / mock
Method: as §1
Confocal laser scanning microscopy. Unless otherwise indicated, all imaging data and micrographs for single protein imaging, co-localizations, BiFC and time-lapse were obtained from the transient expression in N. benthamiana using the relevant Agrobacteria strains. All imaging was done with confocal laser scanning fluorescence microscopy using Zeiss 880 airyscan inverted confocal microscope with a 40×/1.2 water correction objective. GFP (eGFP) was excited with a 488 nm argon laser and emission was collected with a 505-530 nm band pass filter. YFP was excited with an argon laser using a 514 nm beam splitter, and emission was detected with a 520-555 nm band pass filter. mCherry was excited with a 561 nm diode laser, and emission was detected with a 575-615 nm band pass filter. When eGFP/YFP were imaged together with mCherry, a spectral GASP detector was used to collect emission from eGFP/YFP. Propidium iodide (PI) was excited with 488 nm argon laser and emission was detected with a 590-620 nm band pass filter. Time-lapse imaging was carried out on live leaf tissue samples from N. benthamiana plants transiently expressing the protein of interest. Image acquisition was done in 5 min intervals for the duration of 2 hr by scanning 30 consecutive focal planes along the Z-axis covering the entire thickness of an epidermal cell. Z-projection was done to each time frame stack before composing a final time-lapse file. […]

[2] = tested on: Psm ES4326/AvrRpt2-mediated cell death; assay: Cell death (conductivity/electrolyte leakage, trypan blue) after Psm ES4326/AvrRpt2 inoculation; format: in vivo, Arabidopsis thaliana; details: transgenic plants expressing the mutant in npr1-2 background; 1 mM SA 24 hr before inoculation
Method: Chemical treatment, pathogen infection and cell death assays. […] At 2 days, the bacterial colonies were scored.
Trypan blue staining. Leaves of three-week-old Arabidopsis infected with Psm ES4326/AvrRpt2 were sampled at 1 dpi, boiled in 95% ethanol until completely bleached, followed by boiling for 3 min in a 1:1 mixture of 95% ethanol and staining solution (10 ml lactic acid, 10 ml glycerol, 10 g phenol and 10 mg trypan blue, dissolved in 10 ml DDW). The leaves were then de-stained in 2.5 g/ml chloral hydrate solution and transferred to 70% glycerol for subsequent imaging.

B1: BTB: BTB domain of NPR1 corresponding to amino acids 65-144 of SEQ ID NO: 1 (protein, listed as Arabidopsis thaliana)
chain: SDAKLVLSDGREVSFHRCVLSARSSFFKSALAAAKKEKDSNNTAAVKLELKEIAKDYEVGFDSVVTVLAYVYSSRVRPPP
CUL3 pull-down in co-IP in the absence of SA (CUL3): sufficient to strongly pulldown CUL3 even in the absence of SA

B2: ACTD: NPR1 with the C-terminal domain (CTD) deleted (protein)
chain: MDTTIDGFADSYEISSTSFVATDNTDSSIVYLAAEQVLTGPDVSALQLLSNSFESVFDSPDDFYSDAKLVLSDGREVSFHRCVLSARSSFFKSALAAAKKEKDSNNTAAVKLELKEIAKDYEVGFDSVVTVLAYVYSSRVRPPPKGVSECADENCCHVACRPAVDFMLEVLYLAFIFKIPELITLYQRHLLDVVDKVVIEDTLVILKLANICGKACMKLLDRCKEIIVKSNVDMVSLEKSLPEELVKEIIDRRKELGLEVPKVKKHVSNVHKALDSDDIELVKLLLKEDHTNLDDACALHFAVAYCNVKTATDLLKLDLADVNHRNPRGYTVLHVAAMRKEPQLILSLLEKGASASEATLEGRT
modifications: left off: small tags and cut ends
notes: NPR1 with the C-terminal domain (CTD) deleted
condensate formation in the absence of SA (constitutive) [1]: formed constitutive condensates
CUL3 pull-down in co-IP in the absence of SA (CUL3): significantly enhanced the interaction with CUL3

B3: rdr1: NPR1 with cysteine cluster of RDR1 mutated (C150/155/156/160A) (protein)
chain: MDTTIDGFADSYEISSTSFVATDNTDSSIVYLAAEQVLTGPDVSALQLLSNSFESVFDSPDDFYSDAKLVLSDGREVSFHRCVLSARSSFFKSALAAAKKEKDSNNTAAVKLELKEIAKDYEVGFDSVVTVLAYVYSSRVRPPPKGVSEAADENAAHVAARPAVDFMLEVLYLAFIFKIPELITLYQRHLLDVVDKVVIEDTLVILKLANICGKACMKLLDRCKEIIVKSNVDMVSLEKSLPEELVKEIIDRRKELGLEVPKVKKHVSNVHKALDSDDIELVKLLLKEDHTNLDDACALHFAVAYCNVKTATDLLKLDLADVNHRNPRGYTVLHVAAMRKEPQLILSLLEKGASASEATLEGRTALMIAKQATMAVECNNIPEQCKHSLKGRLCVEILEQEDKREQIPRDVPPSFAVAADELKMTLLDLENRVALAQRLFPTEAQAAMEIAEMKGTCEFIVTSLEPDRLTGTKRTSPGVKIAPFRILEEHQSRLKALSKTVELGKRFFPRCSAVLDQIMNCEDLTQLACGEDDTAEKRLQKKQRYMEIQETLKKAFSEDNLELGNSSLTDSTSSTSKSTGGKRSNRKLSHRRR
modifications: A. thaliana npr1 rdr1 protein
protection against cell death induced by Psm ES4326/AvrRpt2 (SA-mediated survival phenotype) [2]: no protection against cell death
condensate formation in the absence of SA (constitutive) [1]: formed cytoplasmic condensates in the absence of SA treatment
CUL3 pull-down signal in co-IP (CUL3): strong interactions with CUL3

B4: rdr2: NPR1 with cysteine cluster of RDR2 mutated (C378/385/394A) (protein)
chain: MDTTIDGFADSYEISSTSFVATDNTDSSIVYLAAEQVLTGPDVSALQLLSNSFESVFDSPDDFYSDAKLVLSDGREVSFHRCVLSARSSFFKSALAAAKKEKDSNNTAAVKLELKEIAKDYEVGFDSVVTVLAYVYSSRVRPPPKGVSECADENCCHVACRPAVDFMLEVLYLAFIFKIPELITLYQRHLLDVVDKVVIEDTLVILKLANICGKACMKLLDRCKEIIVKSNVDMVSLEKSLPEELVKEIIDRRKELGLEVPKVKKHVSNVHKALDSDDIELVKLLLKEDHTNLDDACALHFAVAYCNVKTATDLLKLDLADVNHRNPRGYTVLHVAAMRKEPQLILSLLEKGASASEATLEGRTALMIAKQATMAVEANNIPEQAKHSLKGRLAVEILEQEDKREQIPRDVPPSFAVAADELKMTLLDLENRVALAQRLFPTEAQAAMEIAEMKGTCEFIVTSLEPDRLTGTKRTSPGVKIAPFRILEEHQSRLKALSKTVELGKRFFPRCSAVLDQIMNCEDLTQLACGEDDTAEKRLQKKQRYMEIQETLKKAFSEDNLELGNSSLTDSTSSTSKSTGGKRSNRKLSHRRR
modifications: A. thaliana npr1 rdr2 protein
protection against cell death induced by Psm ES4326/AvrRpt2 (SA-mediated survival phenotype) [2]: stronger protection
condensate formation in the absence of SA (constitutive) [1]: formed cytoplasmic condensates in the absence of SA treatment
CUL3 pull-down signal in co-IP (CUL3): strong interactions with CUL3

B5: nls: NPR1 point mutant with enhanced cytoplasmic localization, blocking nuclear function (protein)
chain: MDTTIDGFADSYEISSTSFVATDNTDSSIVYLAAEQVLTGPDVSALQLLSNSFESVFDSPDDFYSDAKLVLSDGREVSFHRCVLSARSSFFKSALAAAKKEKDSNNTAAVKLELKEIAKDYEVGFDSVVTVLAYVYSSRVRPPPKGVSECADENCCHVACRPAVDFMLEVLYLAFIFKIPELITLYQRHLLDVVDKVVIEDTLVILKLANICGKACMKLLDRCKEIIVKSNVDMVSLEKSLPEELVKEIIDRRKELGLEVPKVKKHVSNVHKALDSDDIELVKLLLKEDHTNLDDACALHFAVAYCNVKTATDLLKLDLADVNHRNPRGYTVLHVAAMRKEPQLILSLLEKGASASEATLEGRTALMIAKQATMAVECNNIPEQCKHSLKGRLCVEILEQEDKREQIPRDVPPSFAVAADELKMTLLDLENRVALAQRLFPTEAQAAMEIAEMKGTCEFIVTSLEPDRLTGTKRTSPGVKIAPFRILEEHQSRLKALSKTVELGKRFFPRCSAVLDQIMNCEDLTQLACGEDDTAEKRLQQQQGYMEIQETLQQAFSEDNLELGNSSLTDSTSSTSKSTGGKRSNRKLSHRRR
modifications: left off: small tags and cut ends
CUL3 pull-down signal in co-IP (CUL3): significantly stronger CUL3 pull-down signals

B6: CTD: C-terminal domain (CTD) of NPR1 (protein)
chain: ALMIAKQATMAVECNNIPEQCKHSLKGRLCVEILEQEDKREQIPRDVPPSFAVAADELKMTLLDLENRVALAQRLFPTEAQAAMEIAEMKGTCEFIVTSLEPDRLTGTKRTSPGVKIAPFRILEEHQSRLKALSKTVELGKRFFPRCSAVLDQIMNCEDLTQLACGEDDTAEKRLQKKQRYMEIQETLKKAFSEDNLELGNSSLTDSTSSTSKSTGGKRSNRKLSHRRR
modifications: left off: large carriers
notes: C-terminal domain (CTD) of NPR1
competition with CUL3 for interaction with BTB (CUL3; Myc-CUL3, BTB-HA and CTD-GFP co-expressed): outcompeted CUL3 for interaction with BTB
